Experimental data taken from patent US20180044653A1, “Mutant Yeast Strain Capable of Degrading Cellobiose” (Institut National de la Recherche Agronomique, priority 2015, published 2018).

Assays:
[1] = test system: A. niger β-glucosidase; details: Yan and Lin, 1997; cited from earlier work
[2] = test system: S. fibuligera β-glucosidase Bgl1; details: Yan and Lin, 1997; cited from earlier work
[3] = Specific activity on cellobiose; type: biochemical
Description: (§1) When using aryl-substrates, the standard assay method was employed, simply replacing pNPGlc by another substrate as appropriate. For oligosaccharides, the release of glucose was quantified using an enzyme kit (D-Fructose/D-Glucose Assay Kit, liquid stable, Megazyme).

[4] = β-Glucosidase activity, release of pNP from pNPGlc; type: biochemical; details: for activity on pNPGlc of purified enzyme: preliminary characterization, pNPGlc as substrate; for Specific activity: pNPGlc
Description: β-Glucosidase activity was measured by quantifying the release of pNP (p-nitroplienol) from pNPGlc as described previously (Guo et al., 2011). One unit of pNPGlcase activity was defined as the amount of enzyme required to release 1 μmol pNP per min. Cellobiose phosphorylase activity was assayed by measuring the formation of Glc-1P from cellobiose as described previously (Reichenbecher et al., 1997). One unit of activity (U) was defined as the amount of enzyme required to release 1 μmol Glc-1P per min. All protein concentrations were measured using the Bradford method and bovine serum albumin as a standard (Bradford, 1976).

[5] = Subcellular fractionation and enzyme localization, activity assayed with pNPGlc; type: biochemical, Y. lipolytica; details: for Relative enzyme activity, Cytoplasm: fraction: Cytoplasm; for Relative enzyme activity, Growth medium: fraction: Growth medium; for Relative enzyme activity, Membrane: fraction: Membrane; for Relative enzyme activity, Periplasm: fraction: Periplasm; for Relative enzyme activity, Total: fraction: Total
Description: Fractionation of yeast cells was carried out as described by Cummings and Fowler (1996), with slight modifications. Briefly, yeasts were cultivated until a cellular density of 6×10^7 cells/mL was reached. Then, to quantify total β-glucosidase activity, a 50 mL sample was taken and subjected to centrifugation at 8,000×g for 5 min at 4° C. thus isolating a cell pellet and supernatant. The cell pellet was disrupted in Tris-HCl buffer (50 mM, pH 7.4, 3 mM EDTA and 0.5 mM PMSF) using a MP FastPrep-24 Instrument (MP Biomedicals Inc.). β-Glucosidase activity in both the cell lysate and the supernatant was determined as described earlier in order to estimate total β-glucosidase activity. Using a second 50 mL yeast culture, a cell pellet containing approximately 2×10^8 cells/mL was obtained by centrifugation and then treated with zymolyase 100T at 10 mg/mL (Seikagaku corp roger) in 15 mL of sorbitol buffer (1 M sorbitol, 50 mM Tris-HCl, pH 7.4, 2 mM dithiothreitol, 10 mM MgCl2, 20 mM-sodium azide, 0.5 mM PMSF) at 30° C. with gentle shaking. Protoplast formation was monitored using a microscope until ≧99% of the cells was lysed when. SDS was added (1% SDS w/v). The solid protoplast fraction was then separated from the supernatant by centrifugation (1000 rpm for 5 min at 4° C.) and the latter was designated as the periplasmic fraction. The protoplasts were re-suspended in Tris-HCl buffer (50 mM Tris-HCl, pH 7.4) and disrupted by vortex in the presence of glass beads (0.4-0.45 mm). The homogenate was centrifuged (20,000×g for 2 h at 4° C.) and the supernatant and solid fractions were designated as the cytoplasmic and membrane fraction respectively. Prior to enzyme assays, the membrane fraction was suspended in citrate buffer.
Activity was assayed with pNPGlc.

[6] = Michaelis-Menten kinetics (glucose release); type: biochemical; details: cellobiose
Description: as §1

[7] = Optimal temperature and pH for activity; type: biochemical; details: pNPGlc
Description: (§2) Optimal temperatures and pH for the activity of Bgl1-His6 and Bgl2 were determined using pNPGlc as the substrate. Assays were either performed at pH 5.0 and various temperatures (30-70° C.), or at 30° C. in variable pH conditions (2.0 to 8.0) using either 50 mM glycine-HCl (pH 2.0), 50 mM citrate/acetate (pH 3.0-7.2), or potassium phosphate (pH 7.0-8.2) buffer. When the temperature was varied, the pH of the citrate buffer was adjusted accordingly. Stability of Bgl1-His6 and Bgl2 depending on pH and temperature was analysed as follows: enzymes were incubated at 30° C. for up to 2 h at various pH values (2.0 to 8.0), or at various temperatures (30-70° C.) for up to 2 h in 50 mM citrate buffer, pH 5.0. Residual glucosidase activity was then assayed at 30° C. in 50 mM citrate buffer, pH 5.0.

[8] = Substrate specificity, aryl-glycoside; type: biochemical
Description: as §1

[9] = Stability depending on pH and temperature (residual glucosidase activity); type: physicochemical
Description: as §2

Molecule: OC[C@H]1O[C@@H](O[C@H]2[C@H](O)[C@@H](O)C(O)O[C@@H]2CO)[C@H](O)[C@@H](O)[C@@H]1O (stereo partly drawn) [Cellobiose]
- Km [1]: 2700 µM
- Km [2]: 2800 µM

B1: Bgl1: β-glucosidase of Y. lipolytica encoded by BGL1 (YALI0F16027g), SEQ ID NO: 4, mainly periplasmic (protein, listed as Yarrowia lipolytica)
chain: MIFSLQLLLTTALAASSPDWYPTPEIGSITSDWADALGESMDILAQLTLPEKVNITTGTGWRGGQCVGNTGAVPRLGIKGLCLQDGPLGVRFADFVNVFPCQNAMAATFDRILVHQRGTAIGRQSRLKGVDVHLGPVVGPLGRHATGGRNWEGFSPDPYLSGKLAFEAILGVQEEGVLATIKHFIGNEQEHYRRAEEWRDGFGFKDLKDAVSSNIEDRALHELYMWPFADAVRANVGSVMCSYNYVNGTQACQNSDLLNGKLKSELGFQGFVMSDWFAQGSGVSNALAGMDMSMPGNDVDELETVFWGEQLTRMVANGTLPEARLDDMVLRILTPLIYFGIDDRTPNFSSFVDTTVGSPHPAAKHSKKVKDVITNYHLDVRDQFAANVALDSARGAVVLLFNDGILPLKNISAIGVFGVGSRLGPNGAVCGENMQCSDGALIEGWGSGTAYPTEYESPYEALHKKASLLEVSVTGTTESWDMRLPLELAGDTDVNIVYVLANSGESTANVDKNLGDRRNVSLWHNGDELINTVASQGQTVVVVTTVGQVDMTAWLNHPNISAVLLTAPAGDYGGKAIADVLFGEVNPSGKLPYTIAANTSDYIPIVTKIPRDGAPQSDFVEGIYLDYKWYDKFERTPLYEFGYGLSYTTYSFSNLHLDVKEISEFLPPRPVPVQVTKPKMTNIDIEDLYVPNDFKMIDGLVYPWILNASAPLADSQTQFPFANGAGHVSDASGGVGGHPWLWSNAVTVTHNTTNCGDVAGRVVSQLYVAFPETLIDSPPVQLRGFDKSKLLNPGESQMTEYNLNWRDLAIWDVELQSWRVQRGEYSVYIGHSSREFELCETFTL
- specific activity on cellobiose [3]: 108 units/mg protein
- fold more active on pNPGlc than Bgl2 [4]: 5 fold
- activity on pNPGlc of purified enzyme [4]: 102.8 U/mg
- Relative enzyme activity, Cytoplasm [5]: 30.0 ± 0.5%
- Relative enzyme activity, Growth medium [5]: 2.3 ± 0.4%
- Relative enzyme activity, Membrane [5]: 8.1 ± 0.7%
- Relative enzyme activity, Periplasm [5]: 60.7 ± 1.0%
- Relative enzyme activity, Total [5]: 100%
- KM fold lower than those of β-glucosidases from S. fibuligera and A. niger [6]: approximately 10 fold

B2: Bgl2: β-glucosidase of Y. lipolytica encoded by BGL2 (YALI0B14289g), SEQ ID NO: 6, secreted to the culture medium (protein, listed as Yarrowia lipolytica)
chain: MLAFVLLLTMLLAAALADPFSDKDAYKHSPPYYPAPEIGRVPTDLRWRAALKVAQGMVANMTLLEKVNITTGTGWEMGPCVGNTGTVERLGIKSLCLQDGPLGIRFADLITTFPAGITIASTFSRQLVRERGAAMGRENRRKGVDITLSPVVGPLGRHANGGRIWEGFSADPYLAGKLAAEAVTGIQGQNVMAVVKHMVGNEQEHFRQLGEWQGFGFKDLKQPLSSNIDDRTLNEAYLWPFADAVRANVGSVMCSYQQINGSQGCQNAHILNGKLKEEMGFQGFVMSDWLAQRSGVASVLAGLDMSMPGDGLVWADGVPLMGYELTRSVLNGTIDESRVDDMVTRILTPILYLSITPTDPNFSSWTNDTTSYKYYGAKAGGNVTVNRHIDVRDQYTTKAALDGANAALVLLKNEKKTLPLNPTNIGNLNIFGIGSKTGPLGAVCGENMQCSDGALIEGWGSGSVYPTDYQSPYDAIKERASKDNITIGGTTQSWGNLSNVEILSAAADASVVFVLSDSGESTGIVDGNIGDRNNLTLWHNGDEVVKAVASKNPNTIVVVTTVGPVNLEKWIDNPNVTAVLLTGPAGDFGGRAAASILFGDIAPSGKLPFTIAKNDTDYIPLTTKIPEDGLPQDYFTEGTLLDYKRFDENQVTPRFEFGYGLSYSNITVENLEARYAFPSIPEFLPTPFAPSNPNKPKNAFTPHANESVFPSDIDPLNKYVYPYLNDTSEIFSNETHYPYPEGYSSEQSNSTNINGGAVGGNPALWLSAVYIVHSVSNYGPYDTGVVTQMYIAFPQDNDDLKTAPRQLRGFERSELKVGERQGILYDVQWRDLAVWDVKLQSWRVQRGEYKVYVGHSSRDFVLTTSFTLK
- specific activity on cellobiose [3]: 25 units/mg protein
- pH of highest activity ([7]; 30° C.): 4.0
- temperature of highest activity ([7]; pH 5.0): 50 °C
- activity on pNP-α-D-glucopyranoside [8]: Neither enzyme displayed activity
- activity on pNP-β-D-galactopyranoside [8]: Neither enzyme displayed activity
- activity on pNP-β-D-cellobioside relative to pNPGlc ([8]; activity on pNPGlc as benchmark): 27%
- decrease in specific activity after deglycosylation ([4]; endoglycosidase H treatment, pNPG): 60%
- Specific activity ([4]; purification step: Culture filtrate): 0.23 U/mg
- Specific activity ([4]; purification step: Gel filtration): 25.8 U/mg
- Specific activity ([4]; purification step: Ion exchange): 2.0 U/mg
- Specific activity ([4]; purification step: Ultra filtration): 0.26 U/mg
- activity on pNPGlc of purified enzyme [4]: 25.8 U/mg
- enzyme activity remained ([9]; 30° C. and 40° C. at pH 5): 100%
- pH range in which enzyme is stable ([9]; 30° C., up to 2 h): 3.5-7.0
- enzyme activity remained ([9]; pH 4.0, 5.0 and 6.0 at 30° C.): 100%
- temperature below which enzyme is stable ([9]; pH 5.0, up to 2 h): below 50 °C
- Relative enzyme activity, Cytoplasm [5]: 4.8 ± 0.8%
- Relative enzyme activity, Growth medium [5]: 79.6 ± 1.2%
- Relative enzyme activity, Membrane [5]: 3.7 ± 0.3%
- Relative enzyme activity, Periplasm [5]: 25.8 ± 1.0%
- Relative enzyme activity, Total [5]: 100%
- KM fold lower than those of β-glucosidases from S. fibuligera and A. niger [6]: ~4 fold
